B1: POU domain, class 6, transcription factor 2, residues 609 to 663; numbered along this chain, P78424 (parent)
chain: KRRTSFTPQALEILNAHFEKNTHPSGQEMTEIAEKLNYDREVVRVWFCNKRQALK

Variants of: B1
Assay: abundance fitness (aPCA) (normalised: wild type 0, dead -1); higher = more abundant; growth selection in yeast, the domain comes from the species named
Conditions: Homo sapiens

Abundance fitness of substitutions, site by site:
L36: S -0.6 | R -0.967 | M -0.175 | C -0.073 | G -0.823 | A -0.094
L14: Q -0.819 | T -0.936 | N -1.06 | V -0.729 | P -0.852 | S -1.05 | Y -0.878 | W -1.03
E31: L -0.288 | A -0.114 | C -0.424 | N -0.258 | P -0.516 | D -0.077 | Y -0.499 | R -0.028 | V -0.174 | M 0.061 | I -0.534 | W -0.131 | T -0.112 | K -0.31 | G -0.041
F18: E -0.892 | V -0.713 | C -0.522 | Q -0.937 | K -0.927 | S -0.593 | Y 0.107 | W -0.086 | R -0.856 | I -0.562 | H -0.698 | N -1.06 | G -0.848 | P -1.07 | M -0.76 | T -0.961
N15: C -0.086 | M -0.132 | D -0.093 | F -0.543 | I -0.78 | T -0.217 | Q -0.281 | L -0.15 | H -0.085 | A -0.247 | S -0.193 | V -0.307 | Y -0.615 | W -0.361 | R -0.217 | P -0.378 | K -0.13
S25: G -0.051 | R -0.125 | C -0.232 | I -0.355 | T 0.003 | D -0.17 | L -0.213 | V -0.207 | N -0.073 | E -0.383 | F -0.515 | A -0.185 | M -0.313 | Y -0.872 | W -0.92 | Q -0.313 | H 0.073
E34: D -0.428 | G -0.347 | C 0.127 | S -0.047 | R -0.237 | L -0.024 | N -0.531 | Q -0.194 | T -0.012 | V -0.194 | M -0.285
E19: R -0.05 | M -0.013 | G -0.148 | A 0.046 | N -0.07 | Q -0.391 | W -0.127 | D -0.037 | H -0.092 | S 0.073 | P -1.05 | C -0.085 | F -0.288 | I 0.032 | L -0.057
T30: I -0.088 | Y -0.25 | L -0.216 | H -0.061 | R -0.119 | E -0.259 | K -0.176 | G -0.128 | P -0.692 | M 0.102 | W -0.393 | A -0.046 | Q -0.119 | S -0.232 | N -0.177
H23: Q -0.029 | Y -0.257 | V -0.086 | P -1.1 | W -0.124 | C 0.018 | K -0.034 | G -0.217 | M -0.275 | A -0.062 | S 0.036 | R 0.011 | N -0.027 | I -0.169 | E 0.072 | F -0.096
A16: W -0.164 | V -0.078 | R -0.084 | Y -0.151 | D 0.113 | P -0.865 | F -0.091 | Q 0.019 | N 0.02 | L -0.054 | G -0.049 | H 0.044 | E -0.002 | M 0.016 | C -0.164 | S -0.16 | K -0.044 | I -0.183
E28: Y -0.113 | D -0.047 | C -0.324 | P -0.998 | Q -0.171 | R -0.175 | S -0.321 | K -0.072 | G -0.592 | I -0.02 | W -0.692 | V -0.094 | A -0.157

— the Human Domainome abundance scans (Beltran et al. 2025)
